Experimental findings from patent publication US20200399382A1 (ARGENX, published 2020) are described below.

In assay [1] the target is T1, mouse IL-4Rα (SPR target of Example 2) (mouse, UniProt P16382 26-233, limits assumed).
T1 construct: also called immobilized target IL-4Rα
T1 sequence (looked up): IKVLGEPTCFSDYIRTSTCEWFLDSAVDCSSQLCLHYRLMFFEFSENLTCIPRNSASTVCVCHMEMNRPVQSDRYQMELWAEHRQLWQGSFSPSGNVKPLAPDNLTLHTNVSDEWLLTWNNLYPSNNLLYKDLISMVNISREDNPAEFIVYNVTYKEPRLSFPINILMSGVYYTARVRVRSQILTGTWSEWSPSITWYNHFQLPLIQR
In words: SPR, mAb (0-20 µg/mL) over immobilised target; immobilized IL-4Rα target; IL-4Rα mAb in solution.

In assay [2] the target is T2, mouse IL-4Rα on cells (HT-2 cells, purified mouse B cells) (mouse, UniProt P16382 26-810).
T2 sequence (looked up): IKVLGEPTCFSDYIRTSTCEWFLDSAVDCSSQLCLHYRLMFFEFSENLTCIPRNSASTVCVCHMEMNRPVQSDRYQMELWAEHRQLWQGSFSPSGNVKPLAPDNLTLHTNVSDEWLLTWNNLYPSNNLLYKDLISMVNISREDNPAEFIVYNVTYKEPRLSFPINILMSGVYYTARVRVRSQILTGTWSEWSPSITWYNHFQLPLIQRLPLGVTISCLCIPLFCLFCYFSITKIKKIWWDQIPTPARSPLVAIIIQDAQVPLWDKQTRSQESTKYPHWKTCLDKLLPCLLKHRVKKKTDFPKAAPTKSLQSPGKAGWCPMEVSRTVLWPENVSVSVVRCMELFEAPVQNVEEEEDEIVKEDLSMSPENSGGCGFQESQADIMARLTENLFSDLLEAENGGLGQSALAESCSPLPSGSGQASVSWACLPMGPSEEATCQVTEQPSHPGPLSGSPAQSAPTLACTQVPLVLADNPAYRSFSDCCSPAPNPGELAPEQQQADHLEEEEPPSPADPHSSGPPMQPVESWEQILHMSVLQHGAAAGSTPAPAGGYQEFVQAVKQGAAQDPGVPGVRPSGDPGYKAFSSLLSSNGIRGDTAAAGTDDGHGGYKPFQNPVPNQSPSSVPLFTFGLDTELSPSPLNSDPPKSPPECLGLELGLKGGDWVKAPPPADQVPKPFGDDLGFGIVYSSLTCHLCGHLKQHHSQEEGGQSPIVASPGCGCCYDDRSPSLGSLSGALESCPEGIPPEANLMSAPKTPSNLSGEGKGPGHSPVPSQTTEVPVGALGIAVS
In words: cell-based or functional assay.

Assay [3] deals with T3, mouse IL-5 (mouse, UniProt P04401 21-133).
T3 construct: also called mIL-5; recombinant mouse IL-5 (R&D Systems)
T3 sequence (looked up): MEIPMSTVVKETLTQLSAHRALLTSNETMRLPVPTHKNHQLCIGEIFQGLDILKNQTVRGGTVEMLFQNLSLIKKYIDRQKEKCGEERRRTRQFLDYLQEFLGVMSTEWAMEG
Briefly: SPR sandwich: IL-4Rα-Fc coated, anti-IL-4Rα Ab as 1st injection, IL-5 as 2nd injection. As to the method:
(§1) The experiment was also performed in reverse order and confirmed the bispecific nature of the molecule as depicted in FIG. 13B.

Assay [4] addresses T4, recombinant mouse IL-4Rα-Fc (mouse, UniProt P16382 26-233).
T4 construct: Bought reagent; also called coated IL-4Rα; injected IL-4Rα; not shown: Fc part
T4 sequence (looked up): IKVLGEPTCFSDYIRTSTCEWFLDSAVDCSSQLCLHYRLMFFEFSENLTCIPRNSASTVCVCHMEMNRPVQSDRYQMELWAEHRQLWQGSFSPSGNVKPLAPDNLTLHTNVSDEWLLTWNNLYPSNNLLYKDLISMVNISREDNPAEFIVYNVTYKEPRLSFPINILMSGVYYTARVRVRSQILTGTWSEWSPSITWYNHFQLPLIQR
In words: SPR sandwich: IL-5 coated, bispecific as 1st injection, IL-4Rα-Fc as 2nd injection. The procedure:
as §1

The target of assay [5] is T3, mouse IL-5. Briefly: SPR, IL-5 coated, antibody as 1st injection. As to the method:
as §1

The target in assay [6] is T4, recombinant mouse IL-4Rα-Fc. Briefly: SPR, IL-4Rα-Fc coated, antibody as 1st injection. The procedure: as §1
Assay [7] addresses T3, mouse IL-5. Briefly: cell-based or functional assay.
The target of assay [8] is T3, mouse IL-5. In words: SPR, mAb (0-20 µg/mL) over immobilised target; immobilized IL-5 target; IL-5 mAb in solution.
Assay [9] deals with T3, mouse IL-5. Briefly: cell-based or functional assay. This is another data set of the same source.

B1: m4RMP36B7 IL-4Rα monospecific antibody (mouse IgG2a) (antibody, V domains shown)
VH: EVQLVESGGGLVQPGGSLRVSCAASGFTFSSYYMAWVRQAPGKGLEWVSHIHAGGSLTQYADSVKGRFTISRDNAKSTLYLQMNSLKPEDTALYYCVRIYGDATSYDYWGQGTQVSVSS
VL: HSAVTQPPSVSGSPGKTVTISCAGTSSDIGGYNYVSWYQQFPGTAPKLLIYEVNKRASGIPDRFSGSKSGNTASLSISGLQSEDEADYYCASYRSNNNIVFGGGTHLTVL
notes: also called IL-4Rα mAb; IL-4Rα monospecific Ab
With B1, the dissociation constant Kd in assay [1] turned out to be 80 pM. Further, the “EC50, inhibition of mouse IL-4-induced proliferation of HT-2 cells” value in assay [2] amounted to 200 pM. Moreover, in the assay with mouse IL-5 [3], the binding result is “no binding”.

B2: IL-4Rα/IL-5 bispecific antibody (knob-into-hole, mouse IgG2a; 4RMP36B7 arm and 5MP95G7 arm) (bispecific antibody, V domains shown)
VH 1: EVQLVESGGGLVQPGGSLRVSCAASGFTFSSYYMAWVRQAPGKGLEWVSHIHAGGSLTQYADSVKGRFTISRDNAKSTLYLQMNSLKPEDTALYYCVRIYGDATSYDYWGQGTQVSVSS
VL 1: HSAVTQPPSVSGSPGKTVTISCAGTSSDIGGYNYVSWYQQFPGTAPKLLIYEVNKRASGIPDRFSGSKSGNTASLSISGLQSEDEADYYCASYRSNNNIVFGGGTHLTVL
VH 2: ELQVVESGGGLVQPGGSLRLSCAASGFTFSSYGMSWVRQAPGKGLEWVSTISRGGDSTSYADSVKGRFTISKDNAKNTLYLQMNSLEPEDTAVYYCANLGRLGFGRGQGTQVTVSS
VL 2: SYELTQPPSVSGSPGKTLTISCAGTSSDIGDWNYVSWFQQLPGTAPKLLISEVNKRASGIPDRFSGSKSGNTASLSISGLQSEDEADYYCTSYRSGNNWVFGGGTHLTVL
notes: Murine Fc: the 4RMP36B7 heavy chain carries T366S, L368A and Y407V in CH3, the 5MP95G7 heavy chain carries T366W; also called IL-4Rα/IL-5 bispecific Ab; bispecific Ab
B2: the binding result (in assay [4]; in the assay with mouse IL-5 [5]) was “binds” each time.

B3: m5MP95G7 IL-5 monospecific antibody (mouse IgG2a) (antibody, V domains shown)
VH: ELQVVESGGGLVQPGGSLRLSCAASGFTFSSYGMSWVRQAPGKGLEWVSTISRGGDSTSYADSVKGRFTISKDNAKNTLYLQMNSLEPEDTAVYYCANLGRLGFGRGQGTQVTVSS
VL: SYELTQPPSVSGSPGKTLTISCAGTSSDIGDWNYVSWFQQLPGTAPKLLISEVNKRASGIPDRFSGSKSGNTASLSISGLQSEDEADYYCTSYRSGNNWVFGGGTHLTVL
notes: also called IL-5 mAb; IL-5 monospecific Ab
On to B3, for which the binding result in [6] was “no binding”. In addition, the “EC50 (nM), inhibition of mIL-5-induced (0.25 ng/mL) proliferation of TF-1 cells” value in the assay with mouse IL-5 [7] is 1.75 nM. The molecule further came in with a dissociation constant (Kd) in the assay with mouse IL-5 [8] of 2 pM. Also, the “EC50, inhibition of mouse IL-5-induced proliferation of TF-1 cells” value with mouse IL-5 [9] came out at 600 pM.
